Laboratory results from US20080199481A1 (AstraZeneca / MedImmune, published 2008).
Where “and” joins values, the source holds several entries; their conditions need not be identical. Identical values can stand only once.

B1: Human CXCL13 (MEL cell derived), unglycosylated (ligand)
chain: VLEVYYTSLRCRCVQESSVFIPRRFIDRIQILPRGNGCPRKEIIVWKKNKSIVCVDPQAEWIQRMMEVLRKRSSSTLPVPVF
notes: also called hCXCL13; Unglycosylated hCXCL13
B2: Cynomolgus CXCL13 (MEL cell derived) (ligand)
chain: VLEVYYTHLRCRCVQESSVFIPRRFIDRIQISPRGNGCPRKEIIVWKKNKSVVCVDPQAEWIQRIMEMLRKKSSSTPPVPVF
modifications: glycosylated (site not stated)
notes: also called Cyno CXCL13; glycosylated cyno CXCL13
B3: Antibody 1 (germlined IgG1) (antibody, V domains shown)
VH: EVQLLESGGGLVQPGGSLRLSCAASGFTFGNSWMSWVRQAPGKGLEWVSAISGSGGSTYYADSVKGRFTISRDNSKNTLYLQMNSLRAEDTAVYYCTRDLPGIAVAGYWGQGTLVTVSS
VL: DTQMTQSPSTLSASVGDRVTITCRASEGIYHWLAWYQQKPGKAPKLLIYKASSLASGVPSRFSGSGSGTEFTLTISSLQPDDFATYYCQQYSNYPLTFGGGTKLEIKR
notes: also called germlined Antibody 1 IgG1; antibody 1 (IgG1)

How the values were obtained:
[1] = biological target: B3; assay: CXCL13 FLISA competition: soluble chemokine titrated against 0.31 nM Antibody 1 germlined IgG1 binding to bead-bound biotinylated human CXCL13 (n = 1)
Experimental: (§1) Samples and reagents were diluted in Assay Buffer (Phosphate Buffered Saline with 0.1% BSA, 0.1% Tween-20 and 0.01% sodium azide). 0.25 nM biotinylated CXCL13 (Almac) was pre-incubated with 0.004% w/v 6-8 μm streptavidin coated polystyrene particles (Spherotec SVP-60-5) for 1 hour at room temperature. The beads were then centrifuged at 3000 rpm for 5 minutes, the supernatant discarded and the pellet resuspended in the original volume of assay buffer to give a 0.004% w/v bead/biotinylated humanCXCL13 mix. 10 μL competitor, assay buffer (total binding control) or excess humanCXCL13 (Non specific binding (NSB) control) was added to a 384 well clear-bottomed non-binding surface assay plate (Costar 3655). […] FL1 signal was read on the Applied Biosystems Cellular Detection System 8200. Data was analysed using the Wang Goldman algorithm with gating of size 3-12, colour ratio <0.4, minimum count 20.
(§2) Specificity of the germlined Antibody 1 IgG₁ for human CXCL13 (MEL cell derived) over other members of the CXC family of chemokines was determined using the CXCL13 FLISA (Fluorescence linked immunosorbent assay). […] The biotinylated human CXCL13 antibody-binding interaction was detected with a fluorescently tagged anti-human IgG antibody using Fluorescence Microvolume assay Technology (refer to “Assay Materials and Methods” for details). […]

[2] = biological target: B3; assay: CXCL13 FLISA competition: soluble chemokine titrated against Antibody 1 germlined IgG1 binding to bead-bound biotinylated human CXCL13 (n = 1)
Experimental: as §1, §2

[3] = biological target: B1; assay: cell-based or functional assay
[4] = biological target: B2; assay: cell-based or functional assay
CXCL12 (SDF-1α) = biological target: T1, CXCL12 (SDF-1α) (UniProt P48061-2 22-89); assay: CXCL13 FLISA competition assay (FMAT, biotinylated human CXCL13 on streptavidin beads)
T1 construct: also called CXCL12 (Peprotech)
Experimental: (§3) Samples and reagents were diluted in Assay Buffer (Phosphate Buffered Saline with 0.1% BSA, 0.1% Tween-20 and 0.01% sodium azide). 0.25 nM biotinylated CXCL13 (Almac) was pre-incubated with 0.004% w/v 6-8 μm streptavidin coated polystyrene particles (Spherotec SVP-60-5) for 1 hour at room temperature. The beads were then centrifuged at 3000 rpm for 5 minutes, the supernatant discarded and the pellet resuspended in the original volume of assay buffer to give a 0.004% w/v bead/biotinylated humanCXCL13 mix. 10 μL competitor, assay buffer (total binding control) or excess humanCXCL13 (Non specific binding (NSB) control) was added to a 384 well clear-bottomed non-binding surface assay plate (Costar 3655). 10 μL 5 nM Goat anti-human (H+L) Alexa Fluor®-647 (Invitrogen A21445), 10 μL 0.31 nM Antibody 1 (germlined IgG) and 20 μL Bead/biotinylated CXCL13 mix were then added and the plates incubated for 4 hours at room temperature. FL1 signal was read on the Applied Biosystems Cellular Detection System 8200. Data was analysed using the Wang Goldman algorithm with gating of size 3-12, colour ratio <0.4, minimum count 20.
(§4) Specificity of the germlined Antibody 1 IgG₁ for human CXCL13 (MEL cell derived) over other members of the CXC family of chemokines was determined using the CXCL13 FLISA (Fluorescence linked immunosorbent assay). In this assay the chemokines CXCL3 (R&D Systems), CXCL5 (R&D Systems), CXCL6 (R&D Systems), CXCL8 (R&D Systems), CXCL10 (R&D Systems) and CXCL12 (Peprotech) were tested for competition with biotinylated human CXCL13 (Almac) immobilised on a streptavidin bead for binding to germlined Antibody 1 IgG₁. The biotinylated human CXCL13 antibody-binding interaction was detected with a fluorescently tagged anti-human IgG antibody using Fluorescence Microvolume assay Technology (refer to “Assay Materials and Methods” for details). Standard chemokine names (Zlotnik and Yoshie, 2000) are given together with their most commonly used synonym.

CXCL10 (IP10) = biological target: T2, CXCL10 (IP10) (UniProt P02778 22-98); assay: as above
T2 construct: also called CXCL10 (R&D Systems)
T2 sequence (looked up): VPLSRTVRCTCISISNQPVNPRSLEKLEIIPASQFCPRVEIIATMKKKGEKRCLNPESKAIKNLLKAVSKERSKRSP
Experimental: as §3, §4

CXCL8 (IL-8) = biological target: T3, CXCL8 (IL-8) (UniProt P10145 28-99); assay: as above
T3 construct: also called CXCL8 (R&D Systems)
T3 sequence (looked up): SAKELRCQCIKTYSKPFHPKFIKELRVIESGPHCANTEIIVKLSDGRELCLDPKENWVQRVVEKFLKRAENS
Experimental: as §3, §4

CXCL3 (GROγ) = biological target: T4, CXCL3 (GROγ) (UniProt P19876 35-107); assay: as above
T4 construct: also called CXCL3 (R&D Systems)
T4 sequence (looked up): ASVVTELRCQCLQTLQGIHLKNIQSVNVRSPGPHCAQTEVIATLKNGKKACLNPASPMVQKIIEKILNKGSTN
Experimental: as §3, §4

CXCL6 (GCP-2) = biological target: T5, CXCL6 (GCP-2) (UniProt P80162 38-114, limits assumed); assay: as above
T5 construct: also called CXCL6 (R&D Systems)
T5 sequence (looked up): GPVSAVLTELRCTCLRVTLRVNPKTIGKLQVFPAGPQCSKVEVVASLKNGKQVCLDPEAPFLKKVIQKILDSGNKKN
Experimental: as §3, §4

CXCL5 (ENA-78) = biological target: T6, CXCL5 (ENA-78) (UniProt P42830 37-114, limits assumed); assay: as above
T6 construct: also called CXCL5 (R&D Systems)
T6 sequence (looked up): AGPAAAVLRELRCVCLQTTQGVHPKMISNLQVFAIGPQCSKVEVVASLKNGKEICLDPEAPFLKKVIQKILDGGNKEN
Experimental: as §3, §4

[5] = biological target: B1; assay: cell-based or functional assay; remark: listed apart in the source
[6] = biological target: B1; assay: cell-based or functional assay; remark: listed apart in the source
[7] = biological target: B2; assay: SPR (BIAcore 2000), IgG captured on Protein G', cyno CXCL13 0.125-40 nM flowed; 1:1 Langmuir with mass transport limitation
Source text: (§5) Standard amine linkage chemistry was employed to create blank and 265 RU surfaces of Protein G′ (Sigma P4689) on Flow cells (Fc) 1 and 2, respectively, of a normalized CM5 chip (BIAcore, BR-1000-14). This Fc 2 Protein G′ surface was used to capture 240-385 RUs Antibody 1 (germlined IgG₁).

[8] = biological target: T7, Glycosylated human CXCL13 (MEL cell derived) (human, UniProt O43927 23-104, glycosylated (site not stated)); assay: cell-based or functional assay
T7 sequence: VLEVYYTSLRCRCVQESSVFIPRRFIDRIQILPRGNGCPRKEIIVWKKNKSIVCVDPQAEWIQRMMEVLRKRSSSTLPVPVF

[9] = biological target: B1; assay: cell-based or functional assay; remark: listed apart in the source
[10] = biological target: B2; assay: cell-based or functional assay
[11] = biological target: B2; assay: SPR (BIAcore 2000), IgG amine-coupled to a CM3 chip, cyno CXCL13 0.10-0.60 nM flowed; 1:1 Langmuir (n=1, initial data)
Experimental: (§6) Antibodies were diluted to 1.0 μg mL-1 in 10 mM acetate buffer pH 4.5. Standard amine linkage chemistry (using amine coupling kit BR-1000-50) was employed to create blank (Fc 1) and 500 RU surfaces of IgG on a CM3 chip (BIAcore, BR-1005-41, lot: 1160100 expiry April '07). The wash solution employed was Glycine pH 2.0.
(§7) Flow of human and cynomolgus CXCL13 over chip surfaces. A dilution series of each CXCL13 (0.10, 0.20, 0.30, 0.40, 0.50 and 0.60 nM) was constructed in HBS-EP buffer and flowed at 30 μL min-1 over all flow cells (association time of 4 minutes, dissociation for 10 minutes and regeneration with two 20 μL pulses of 10 mM Glycine pH 2.0). Blank injections were made with the same buffer. All solutions were prepared and stored in polypropylene.

[12] = biological target: B1; assay: SPR (BIAcore 2000), IgG captured on Protein G', human CXCL13 flowed; average of the 3 experiments of Table 10a
Source text: as §5

[13] = biological target: B2; assay: SPR (BIAcore 2000), IgG captured on Protein G', cyno CXCL13 flowed; average of the 2 experiments of Table 11
Source text: as §5

[14] = biological target: B1; assay: SPR (BIAcore 2000), IgG captured on Protein G', human CXCL13 0.25-20 nM flowed; 1:1 Langmuir with mass transport limitation
Source text: as §5

[15] = biological target: B1; assay: SPR (BIAcore 2000), IgG amine-coupled to a CM3 chip, human CXCL13 0.10-0.60 nM flowed; 1:1 Langmuir (n=1, initial data)
Experimental: as §6, §7

[16] = biological target: T8, Biotinylated human CXCL13 (Almac) (human, UniProt O43927 23-109, biotin at the most C terminal lysine residue); assay: SPR (BIAcore 2000), 28 RU biotinylated human CXCL13 captured on streptavidin, Fab 0.065-2.105 nM flowed
T8 construct: also called human CXCL13 biotinylated near the C-terminus (Almac custom synthesis)
T8 sequence: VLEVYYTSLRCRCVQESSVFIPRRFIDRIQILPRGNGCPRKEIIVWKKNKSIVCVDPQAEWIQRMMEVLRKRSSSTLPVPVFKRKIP
Source text: Standard amine linkage chemistry was employed to create blank (Fc 1) and 228 and 303 RU surfaces of Streptavidin (Perbio/Pierce 21125) on Flow cells (Fc) 2 and 3, respectively, of a normalized CM5 chip (BIAcore, BR-1000-14). This Fc 3 streptavidin surface was used to capture 28 RUs human CXCL13 biotinylated near the C-terminus (Almac custom synthesis).

With B1 the IC50 [1] was 0.2 nM.

In the case of B2, the IC50 [2] is reported as 0.8 nM.

With B3 the “IC50, LANCE CXCL13 cAMP assay (CHO Gqi5 hCXCR5 cells)” value [3] was 1.6 nM, the “IC50, LANCE CXCL13 cAMP assay (CHO Gqi5 hCXCR5 cells)” value [4] was 0.3 nM and the binding result (CXCL12 (SDF-1α)) was “no binding (tested: 1 µM)”. B3: no binding (tested: 1 µM) (CXCL10 (IP10)); no binding (tested: 1 µM) (CXCL8 (IL-8)); no binding (tested: 1 µM) (CXCL3 (GROγ)). For the same binder, the binding result (CXCL6 (GCP-2)) was “no binding (tested: 1 µM)”, the binding result (CXCL5 (ENA-78)) was “no binding (tested: 1 µM)” and the “IC50, human tonsillar B cell chemotaxis assay (100 nM human non-glycosylated CXCL13, ED80; n=4)” value [5] was 9.59 nM. For the same binder, the “IC50, CXCL13 mediated CHO Gqi5 hCXCR5 c4.4 Ca2+ release assay (FLIPR)” value [6] was 10.4 nM, the Kd [7] was 0.033 nM and 0.0291 nM and the koff [7] was 0.00065 s⁻¹ and 0.000599 s⁻¹. For the same binder, the kon [7] was 1.97e+07 M⁻¹ s⁻¹ and 2.05e+07 M⁻¹ s⁻¹, the “IC50, B300.19 hCXCR5 chemotaxis assay (ED80 concentration of CXCL13)” value (from here on “IC50, B300.19 hCXCR5 chemotaxis assay”) [8] was 3.94 nM and the “IC50, B300.19 hCXCR5 chemotaxis assay” value [9] was 6.22 nM. The “IC50, B300.19 hCXCR5 chemotaxis assay” value [10] was 4.53 nM, the Kd [11] was 0.285 nM and the koff [11] was 0.00104 s⁻¹. The kon [11] was 3.63e+06 M⁻¹ s⁻¹, the Kd [12] was 0.0414 nM and the koff [12] was 0.000712 s⁻¹. It also gave a kon [12] of 1.77e+07 M⁻¹ s⁻¹, a Kd [13] of 0.0311 nM and a koff [13] of 0.000625 s⁻¹. The kon [13] was 2.01e+07 M⁻¹ s⁻¹, the Kd [14] was 0.0322 nM and 0.0504 nM and 0.0417 nM and the koff [14] was 0.000684 s⁻¹ and 0.000715 s⁻¹ and 0.000736 s⁻¹. The kon [14] was 2.13e+07 M⁻¹ s⁻¹ and 1.42e+07 M⁻¹ s⁻¹ and 1.76e+07 M⁻¹ s⁻¹, the Kd [15] was 0.259 nM and the koff [15] was 0.000524 s⁻¹. It also gave a kon [15] of 2.02e+06 M⁻¹ s⁻¹.

B4: Antibody 1 (germlined IgG1) Fab (Fab, V domains shown)
VH: EVQLLESGGGLVQPGGSLRLSCAASGFTFGNSWMSWVRQAPGKGLEWVSAISGSGGSTYYADSVKGRFTISRDNSKNTLYLQMNSLRAEDTAVYYCTRDLPGIAVAGYWGQGTLVTVSS
VL: DTQMTQSPSTLSASVGDRVTITCRASEGIYHWLAWYQQKPGKAPKLLIYKASSLASGVPSRFSGSGSGTEFTLTISSLQPDDFATYYCQQYSNYPLTFGGGTKLEIKR
notes: also called Size Exclusion Chromatography monomerized Fab fragments of Antibody 1
B4 showed a Kd [16] of 0.185 nM, a koff [16] of 0.00166 s⁻¹ and a kon [16] of 8.98e+06 M⁻¹ s⁻¹.
